The values below come from patent publication US20210070843A1.

Usually EC50 stands for the concentration that produces a half-maximal response.

Substitutions are numbered along the chain they refer to.

B1: S06 (antibody, V domains shown)
VH: EVQLVESGGGLVQPGGSLRLSCAASGFTIGGGWIHWVRQAPGKGLEWVAFIGPYGGSTFYADSVKGRFTISADTSKNTAYLQMNSLRAEDTAVYYCARFNFGFWNHMDYWGQGTLVTVSS
VL: DIQMTQSPSSLSASVGDRVTITCRASQDVSSWVAWYQQKPGKAPKLLIYGTTFLHSGVPSRFSGSGSGTDFTLTISSLQPEDFATYYCQQYYNGPLTFGQGTKVEIKR
B2: S10 (antibody, V domains shown)
VH: EVQLVESGGGLVQPGGSLRLSCAASGFTIGGYGIHWVRQAPGKGLEWVASIGPSWGFTFYADSVKGRFTISADTSKNTAYLQMNSLRAEDTAVYYCARFNWVINGVTDYWGQGTLVTVSS
VL: B1 VL with S31Y, W32Y, Y49F, G50W, T51S, H55Y, N93D, G94S, L96M
B3: S48 (antibody, V domains shown)
VH: B1 VH with A24V, G31D, W33S, F50S, F59Y, N100H, F101Y, F103Y, H106N
VL: B1 VL with S30G, S31W, T52R, F53W, H55Y, L78V, N93S, L96I
B4: Do1 (antibody, V domains shown)
VH: EVQLVESGGGLVQPGGSLRLSCAASGFTIDNGSIHWVRQAPGKGLEWVAWIGPYGGFTSYADSVKGRFTISADTSKNTAYLQMNSLRAEDTAVYYCARFYGSGSSSFMDYWGQGTLVTVSS
VL: B1 VL with S30W, S31G, W32G, Y49F, G50F, T51S, T52R, F53Y, H55Y
B5: S29 (antibody, V domains shown)
VH: EVQLVESGGGLVQPGGSLRLSCAASGFTISDYWIHWVRQAPGKGLEWVASIWPSGGYTYYADSVKGRFTISADTSKNTAYLQMNSLRAEDTAVYYCARFNWIVGHYMDYWGQGTLVTVSS
VL: B1 VL with S30F, S31G, W32G, G50W, T51S, T52S, F53W, H55Y, N93D, L96I
B6: P28 (antibody, V domains shown)
VH: EVQLVESGGGLVQPGGSLRLSCAASGFTINNSGIHWVRQAPGKGLEWVASIWPSGGYTYYADSVKGRFTISADTSKNTAYLQMNSLRAEDTAVYYCARFNSSYSSGLMDYWGQGTLVTVSS
VL: B1 VL with S30W, S31Y, W32S, G50F, T51A, F53G, H55Y, Y92F, G94W, L96V
B7: S45 (antibody, V domains shown)
VH: EVQLVESGGGLVQPGGSLRLSCAASGFTINGSSIHWVRQAPGKGLEWVAYIGPFGGSTYYADSVKGRFTISADTSKNTAYLQMNSLRAEDTAVYYCARFWHGYNLYMDYWGQGTLVTVSS
VL: B1 VL with S30G, S31W, T51A, T52R, H55Y, Y92F
B8: S11 (antibody, V domains shown)
VH: B1 VH with G30D, G31N, W33G, F50W, F59S, N100G, F103L, W104H, N105D, H106L
VL: B1 VL with S30Y, G50Y, T51S, T52S, H55Y
B9: P38 (antibody, V domains shown)
VH: EVQLVESGGGLVQPGGSLRLSCAASGFTINDGGIHWVRQAPGKGLEWVAFIGPYGGSTFYADSVKGRFTISADTSKNTAYLQMNSLRAEDTAVYYCAGFIGDYSSYHGVMDYWGQGTLVTVSS
VL: DIQMTQSPSSLSASVGDRVTITCRASQDVWGYVAWYQQKPGKAPKLLISWPGGLYSGVPSRFSGSGSGTDFTLTISSLQPEDFATYYCQQYSSFPLTFGQGTKVEIKR

The first experiment has as its target H7 A/Anhui/1-BALF_RG17/2013 HA on H7N9 AH/13 pseudo virus (influenza A virus A/Anhui/1-BALF_RG17/2013 (H7N9)). Kind of experiment: cell-based or functional assay.
B1 came in with an IC50 of pseudo virus neutralization H7N9 AH/13 of over 200 µg/mL.

The molecule B2 displayed an IC50 of pseudo virus neutralization H7N9 AH/13 of over 200 µg/mL.

Molecule B3 registered an IC50 of pseudo virus neutralization H7N9 AH/13 of over 200 µg/mL.

The molecule B4 had an IC50 of pseudo virus neutralization H7N9 AH/13 of over 200 µg/mL.

As for B5, the IC50 of pseudo virus neutralization H7N9 AH/13 was over 200 µg/mL.

Regarding B6, the IC50 of pseudo virus neutralization H7N9 AH/13 was over 200 µg/mL.

In turn, B7 came in with an IC50 of pseudo virus neutralization H7N9 AH/13 of over 200 µg/mL.

Consider B8, for which the IC50 of pseudo virus neutralization H7N9 AH/13 is over 200 µg/mL.

B9: the IC50 of pseudo virus neutralization H7N9 AH/13 is over 200 µg/mL.

Another experiment addresses cell surface-expressed H3N2 WN/05 HA trimer (influenza A virus A/Wisconsin/67/2005 (H3N2)). The experiment in a line: cell-based or functional assay.
Take B1: the IC50 of pseudo virus neutralization H3N2 WN/05 is over 20 µg/mL.

On to B2, for which the IC50 of pseudo virus neutralization H3N2 WN/05 was over 20 µg/mL.

The molecule B3 came in with an IC50 of pseudo virus neutralization H3N2 WN/05 of over 20 µg/mL.

Regarding B4, the IC50 of pseudo virus neutralization H3N2 WN/05 is over 20 µg/mL.

With B5, the IC50 of pseudo virus neutralization H3N2 WN/05 was over 20 µg/mL.

As to B6, the IC50 of pseudo virus neutralization H3N2 WN/05 is over 20 µg/mL.

Consider B7, for which the IC50 of pseudo virus neutralization H3N2 WN/05 is over 20 µg/mL.

Molecule B8 returned an IC50 of pseudo virus neutralization H3N2 WN/05 of over 20 µg/mL.

In turn, B9 returned an IC50 of pseudo virus neutralization H3N2 WN/05 of over 20 µg/mL.

Another experiment addresses full-length H5 A/Vietnam/1203/2004 HA expressed on 293T cells (influenza A virus A/Vietnam/1203/2004 (H5N1)). Kind of experiment: cell-based or functional assay.
In the case of B1, the IC50 of pseudo virus neutralization H5N1 VN/04 is over 200 µg/mL.

As for B2, the IC50 of pseudo virus neutralization H5N1 VN/04 is 0.267 µg/mL.

Regarding B3, the IC50 of pseudo virus neutralization H5N1 VN/04 was over 200 µg/mL.

As for B4, the IC50 of pseudo virus neutralization H5N1 VN/04 is over 200 µg/mL.

In turn, B5 yielded an IC50 of pseudo virus neutralization H5N1 VN/04 of over 200 µg/mL.

Molecule B6 showed an IC50 of pseudo virus neutralization H5N1 VN/04 of over 200 µg/mL.

B7 came in with an IC50 of pseudo virus neutralization H5N1 VN/04 of over 200 µg/mL.

The molecule B8 returned an IC50 of pseudo virus neutralization H5N1 VN/04 of over 200 µg/mL.

Molecule B9 showed an IC50 of pseudo virus neutralization H5N1 VN/04 of over 200 µg/mL.

The target of the next experiment is full-length H1 A/California/07/2009 HA expressed on 293T cells (influenza A virus A/California/07/2009 (H1N1)). The experiment in a line: cell-based or functional assay.
The molecule B1 gave an IC50 of pseudo virus neutralization H1N1 CA/09 of over 100 µg/mL and an IC50 of true virus neutralization H1N1 CA/09 of over 500 µg/mL.

B2: the IC50 of pseudo virus neutralization H1N1 CA/09 is 0.349 µg/mL and the IC50 of true virus neutralization H1N1 CA/09 was 1560 µg/mL.

B3 yielded an IC50 of pseudo virus neutralization H1N1 CA/09 of over 100 µg/mL and an IC50 of true virus neutralization H1N1 CA/09 of over 500 µg/mL.

B4 had an IC50 of pseudo virus neutralization H1N1 CA/09 of over 100 µg/mL and an IC50 of true virus neutralization H1N1 CA/09 of over 500 µg/mL.

B5 displayed an IC50 of pseudo virus neutralization H1N1 CA/09 of 0.672 µg/mL and an IC50 of true virus neutralization H1N1 CA/09 of over 500 µg/mL.

The molecule B6 returned an IC50 of pseudo virus neutralization H1N1 CA/09 of over 100 µg/mL and an IC50 of true virus neutralization H1N1 CA/09 of over 500 µg/mL.

Molecule B7 came in with an IC50 of pseudo virus neutralization H1N1 CA/09 of over 100 µg/mL and an IC50 of true virus neutralization H1N1 CA/09 of over 500 µg/mL.

For the molecule B8, the IC50 of pseudo virus neutralization H1N1 CA/09 is over 100 µg/mL and the IC50 of true virus neutralization H1N1 CA/09 is over 500 µg/mL.

For the molecule B9, the IC50 of pseudo virus neutralization H1N1 CA/09 was over 100 µg/mL and the IC50 of true virus neutralization H1N1 CA/09 was over 500 µg/mL.

Another experiment concerns the target cell surface-expressed H3N2 WN/05 HA trimer (influenza A virus A/Wisconsin/67/2005 (H3N2)). The experiment in a line: flow cytometry, HA-expressing 293T. On the technique in general: Flow cytometry measures light scatter and fluorescence of single cells or particles in a stream.
The molecule B1 returned a max. MFI of 135 MFI.

B2: the EC50 came to 7.86 µg/mL and the max. MFI was found to be 511 MFI.

B3 returned a max. MFI of 122 MFI.

Molecule B4 displayed a max. MFI of 278 MFI.

B5: the max. MFI turned out to be 188 MFI.

Take B6: the max. MFI was found to be 127 MFI.

B7 yielded an EC50 of 15.8 µg/mL and a max. MFI of 529 MFI.

B8 had a max. MFI of 207 MFI.

B9 registered a max. MFI of 137 MFI.

The target in the next experiment is full-length H5 A/Vietnam/1203/2004 HA expressed on 293T cells (influenza A virus A/Vietnam/1203/2004 (H5N1)). Kind of experiment: flow cytometry, HA-expressing 293T.
As to B1, the max. MFI worked out at 249 MFI.

The molecule B2 had an EC50 of 0.79 µg/mL and a max. MFI of 1100 MFI.

For B3, the EC50 amounted to 1.92 µg/mL and the max. MFI is 875 MFI.

In the case of B4, the max. MFI was determined as 313 MFI.

B5 returned a max. MFI of 367 MFI.

On to B6, for which the max. MFI stood at 193 MFI.

B7 displayed a max. MFI of 451 MFI.

Molecule B8 gave a max. MFI of 434 MFI.

B9: the max. MFI came out at 240 MFI.

A further experiment has as its target full-length H1 A/California/07/2009 HA expressed on 293T cells (influenza A virus A/California/07/2009 (H1N1)). The experiment in a line: flow cytometry, HA-expressing 293T.
In turn, B1 displayed an EC50 of 3.98 µg/mL and a max. MFI of 1650 MFI.

Regarding B2, the EC50 stood at 3.38 µg/mL and the max. MFI was determined as 10700 MFI.

In turn, B3 showed an EC50 of 4.86 µg/mL and a max. MFI of 6240 MFI.

The molecule B4 came in with a max. MFI of 228 MFI.

Take B5: the EC50 worked out at 4.22 µg/mL and the max. MFI turned out to be 6280 MFI.

With B6, the max. MFI was 168 MFI.

In turn, B7 registered an EC50 of 4.47 µg/mL and a max. MFI of 2470 MFI.

In the case of B8, the EC50 is 4.07 µg/mL and the max. MFI turned out to be 5600 MFI.

Turning to B9, the EC50 amounted to 3.16 µg/mL and the max. MFI was 988 MFI.

A further experiment concerns the target recombinant H5N1 VN/04 HA trimer (hemagglutinin ectodomain of A/Vietnam/1203/2004) (influenza A virus A/Vietnam/1203/2004 (H5N1)). The experiment in a line: ELISA, coated HA.
For B1, the EC50 was determined as 0.311 µg/mL.

For the molecule B2, the EC50 came out at 0.259 µg/mL.

Consider B3, for which the EC50 came to 0.0737 µg/mL.

Take B4: the EC50 is over 10 µg/mL.

Regarding B5, the EC50 was over 10 µg/mL.

Consider B7, for which the EC50 amounted to 0.23 µg/mL.

For the molecule B8, the EC50 came to 0.0781 µg/mL.
